The source of these data is paper PMC10102205, “Active and stable alcohol dehydrogenase-assembled hydrogels via synergistic bridging of triazoles and metal ions” (Nature Communications, 2023).

One data set deals with T1, TbSADH (Thermoanaerobacter brockii, UniProt P14941).
T1 construct: gene adh; recombinant from E. coli BL21(DE3), pET28a or pET22b vector, purified by AKTA; homotetramer
T1 sequence (P14941 1-352): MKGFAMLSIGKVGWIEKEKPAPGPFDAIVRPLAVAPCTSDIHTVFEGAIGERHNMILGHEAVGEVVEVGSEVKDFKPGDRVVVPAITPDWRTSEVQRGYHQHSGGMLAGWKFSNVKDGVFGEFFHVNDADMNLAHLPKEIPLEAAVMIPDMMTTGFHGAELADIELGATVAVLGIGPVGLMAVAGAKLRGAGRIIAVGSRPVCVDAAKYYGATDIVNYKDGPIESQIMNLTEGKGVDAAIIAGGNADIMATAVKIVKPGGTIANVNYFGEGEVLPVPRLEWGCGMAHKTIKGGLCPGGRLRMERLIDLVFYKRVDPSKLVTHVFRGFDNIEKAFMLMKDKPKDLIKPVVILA
The data set is described as follows: isothermal titration calorimetry. Format: binding.

Substrate in data set [1]: CC(=O)c1ccccc1
Put plainly: asymmetric reduction, chiral HPLC, Michaelis–Menten fit. Conditions: free enzyme, not gelated, general assay: NADP^+ 1 mM, 10% IPA, phosphate buffer 50 mM pH 7.4, 30 °C. Format: biochemical, Thermoanaerobacter brockii.

By Kd is commonly meant the concentration at which binding is half-saturated. As to `Cc1nnc[nH]1` [3-Me-3N, 1H-3-methyl-1,2,4-triazole], the Kd at TbSADH was found to be 770 µM.

B1: TbSADH (Thermoanaerobacter brockii) (protein)
chain: MKGFAMLSIGKVGWIEKEKPAPGPFDAIVRPLAVAPCTSDIHTVFEGAIGERHNMILGHEAVGEVVEVGSEVKDFKPGDRVVVPAITPDWRTSEVQRGYHQHSGGMLAGWKFSNVKDGVFGEFFHVNDADMNLAHLPKEIPLEAAVMIPDMMTTGFHGAELADIELGATVAVLGIGPVGLMAVAGAKLRGAGRIIAVGSRPVCVDAAKYYGATDIVNYKDGPIESQIMNLTEGKGVDAAIIAGGNADIMATAVKIVKPGGTIANVNYFGEGEVLPVPRLEWGCGMAHKTIKGGLCPGGRLRMERLIDLVFYKRVDPSKLVTHVFRGFDNIEKAFMLMKDKPKDLIKPVVILA
notes: recombinant from E. coli BL21(DE3), pET28a or pET22b vector, purified by AKTA; homotetramer
Broadly, the Km is the concentration of substrate that gives half-maximal velocity. The term kcat denotes the maximal rate divided by the concentration of active sites. As for B1, in data set [1], the Km came out at 17.86 mM and the kcat worked out at 2.46 s⁻¹.
